Common to all, as to assay: co-IP
For experiment [1], the target named is α-eGFP (hybrid mouse α-adaptin with eGFP inserted into the hinge region) (mouse) (UniProt P17427).
Experiment [2] has as its target μ2-eGFP (rat AP2M1 with internal HA tag and eGFP) (rat) (UniProt P84092).
Experiment [3] has as its target σ2-eGFP (AP2S1 with C-terminal eGFP) (UniProt P62744).
Chain of UniProt P62744 (P62744 whole entry): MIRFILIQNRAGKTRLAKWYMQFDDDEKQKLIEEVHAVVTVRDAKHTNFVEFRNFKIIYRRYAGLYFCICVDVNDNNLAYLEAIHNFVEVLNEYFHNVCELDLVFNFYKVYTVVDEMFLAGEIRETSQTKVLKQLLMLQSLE

Chain of UniProt P84092 (P84092 whole entry): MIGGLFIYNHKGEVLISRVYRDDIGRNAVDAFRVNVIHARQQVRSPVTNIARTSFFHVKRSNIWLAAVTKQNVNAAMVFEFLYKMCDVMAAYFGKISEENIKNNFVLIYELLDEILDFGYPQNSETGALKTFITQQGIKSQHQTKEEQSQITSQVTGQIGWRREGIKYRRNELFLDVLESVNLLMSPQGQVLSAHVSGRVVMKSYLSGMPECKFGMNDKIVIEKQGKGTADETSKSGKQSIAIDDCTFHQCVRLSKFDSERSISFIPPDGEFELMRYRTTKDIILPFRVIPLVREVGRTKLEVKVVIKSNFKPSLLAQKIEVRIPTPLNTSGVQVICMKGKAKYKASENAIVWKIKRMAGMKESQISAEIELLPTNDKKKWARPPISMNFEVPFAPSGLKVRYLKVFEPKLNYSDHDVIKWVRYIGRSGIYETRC

As for “endogenous σ2 subunit of AP2 (from UniProt P53680 1-142) (natural protein)”, the percent of the endogenous subunit pulled down was found to be 78.8% in experiment [1] and 68% in experiment [2].

With “endogenous α subunit of AP2 (α-adaptin) (from UniProt O94973 1-939) (natural protein)”, the percent of the endogenous subunit pulled down was determined as 94.1% in experiment [2] and 98.7% in experiment [3].

Consider “endogenous μ2 subunit of AP2 (from UniProt Q96CW1 1-435) (natural protein)”, for which the figures for the percent of the endogenous subunit pulled down in experiment [1] and in experiment [3] were 99.3% and 79.5%, respectively.

The record behind these values is PMC7495412.
